We go through six molecules from US20260070984A1 (Boehringer Ingelheim, published 2026).

Assay [1] addresses T1, cynomologous PD-1 (cynomolgus monkey, UniProt B0LAJ3 25-170).
T1 construct: Used in SPR; also called cynomolgus PD-1; recombinant cynomologus PD-1
The experiment in a line: SPR, ProteOn XPR36, 1:1 binding model. In general terms: Surface plasmon resonance follows binding to a sensor surface in real time, without labels.
Protocol: C) Affinity and kinetic data for the anti-PD-1 antibodies binding to cynomologous PD-1 were measured on the ProteOn™ XPR36 surface plasmon resonance optical biosensor, and globally fit to a 1:1 binding model (Table 11).

The target of assay [2] is T2, human PD-1 expressed on cells (human, UniProt Q15116 25-288). The assay is described as follows: cell-based or functional assay.
For assay [3], the target named is T2, human PD-1 expressed on cells. The experiment in a line: cell-based or functional assay. This is another data set of the same source.
For assay [4], the target named is T3, recombinant human PD-1 (human, UniProt Q15116 25-167, limits assumed).
T3 construct: Soluble recombinant protein used in SPR; also called PDCD1; purified recombinant human PD-1
The experiment in a line: SPR, ProteOn XPR36, 1:1 binding model. The protocol: Antibody PD1AB-6-4P (antibody in IgG4Pro backbone disclosed in WO2017/058859 to Celgene) was also tested.

The target of assay [5] is T2, human PD-1 expressed on cells. The assay is described as follows: CHO-PD1-PDL1 DELFIA Eu TRF assay: enhancement of biotin labeled PD-L1 binding to CHO cells expressing PD-1, antibody titrated.
Protocol: (§1) 10,000 cells were plated and incubated overnight at 37° C.±5% CO2 incubator (humidified incubator). […] Plates were washed twice with 50 μl of 1× TRF Wash Buffer. 20 μL of Eu-Streptavidin reagent was added to the assay plate, and incubated at room temperature for one hour. Enhancement Solution was added and incubated for 30 minutes at RT.
For assay [6] the target is unchanged. The assay is described as follows: cell-based or functional assay. This is another data set of the same source.
Assay [7] shares this target. The experiment in a line: flow cytometry, AlexaFluor 647 labeled antibody on Jurkat cells expressing human PD-1. The protocol:
Selectivity of anti-PD-1 antibody to human PD-1 protein in a cell-based assay was evaluated by flow cytometry. […] As a control, parental and PD-1 expressing Jurkat cells were incubated with anti-TNP isotype control antibodies. Following incubation, the cells were washed to remove non-bound antibody, fixed in PFA, and then washed in staining buffer. Binding of the antibody to the Jurkat cells was evaluated by flow cytometry. Unstained cells were also evaluated by flow cytometry as a negative control.
(A flow cytometer gives signals particle by particle.)

Assay [8] shares this target. The experiment in a line: cell-based or functional assay. This is another data set of the same source.
The target is the same in assay [9]. The experiment in a line: cell-based or functional assay. This is another data set of the same source.
The target in assay [10] is T1, cynomologous PD-1. The assay is described as follows: SPR, ProteOn XPR36.
Assay [11] concerns the target T3, recombinant human PD-1. The experiment in a line: SPR, ProteOn XPR36. The protocol: Kinetics and binding affinities were measured using the ProteOn™ XPR36 (Biorad, Hercules, CA) surface plasmon resonance optical biosensor using material generated from transient transfection following single column purification.
For assay [12], the target named is T2, human PD-1 expressed on cells. The experiment in a line: cell-based or functional assay. The source holds these as a separate data set.
Assay [13] has the same target. The assay is described as follows: flow cytometry: enhancement of PDL1-biotin/Streptavidin-APC binding to CHO cells expressing PD-1. The procedure:
A second cell-based assay where PD-1 was expressed on CHO cells was also utilized to evaluate PD-1/PD-L1 interactions. […] 50 μl of 2×10⁶ cells/ml were added to each well (100,000 cells/well). Cells were centrifuged and re-suspended in 50 μl of the indicated antibody concentrations and incubated for 60 minutes on ice. […] Cells were washed and resuspended in 180 μl stain buffer +20μ PFA and data was acquired on a BD LSR II.

The target is the same in assay [14]. The assay is described as follows: DELFIA Eu TRF assay: enhancement of biotin labeled PD-L1 binding to CHO cells expressing PD-1.
Protocol: as §1

Positions count from the first letter of the chain named. Like-named read-outs stand apart in the source and are kept apart here.

T3 sequence (Q15116 25-167 limits assumed): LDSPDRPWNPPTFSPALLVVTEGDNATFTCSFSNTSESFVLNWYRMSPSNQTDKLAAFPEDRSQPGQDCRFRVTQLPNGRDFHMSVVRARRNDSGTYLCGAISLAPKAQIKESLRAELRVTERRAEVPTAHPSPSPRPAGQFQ
T1 sequence (B0LAJ3 entry or part of it limits assumed): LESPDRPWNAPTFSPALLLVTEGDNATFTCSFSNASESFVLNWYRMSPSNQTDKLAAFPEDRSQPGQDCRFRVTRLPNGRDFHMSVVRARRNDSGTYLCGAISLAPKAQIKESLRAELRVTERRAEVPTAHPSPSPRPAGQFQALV
T2 sequence (Q15116 25-288): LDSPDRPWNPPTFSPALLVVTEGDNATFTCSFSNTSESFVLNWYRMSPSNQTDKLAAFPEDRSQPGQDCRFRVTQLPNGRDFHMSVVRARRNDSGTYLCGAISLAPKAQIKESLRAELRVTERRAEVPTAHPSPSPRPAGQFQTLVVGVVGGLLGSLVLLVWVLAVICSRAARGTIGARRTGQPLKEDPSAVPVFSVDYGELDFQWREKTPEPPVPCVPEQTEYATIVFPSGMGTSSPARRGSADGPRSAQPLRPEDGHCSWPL

B1: Antibody B (antibody, human IgG4 S228P, kappa, V domains shown)
VH: EVQLVESGGGLVQPGGSLRLSCAASGFTFSDYYMSWVRQAPGKGLEWVAYISSGGGSSYYPDLVKGRFTISRDNAKNSLYLQMQSLRAEDTAVYYCARLPHYFAMDYWGQGTLVTVSS
VL: DIQMTQSPSSLSASVGDRVTITCQASQSISSDYLHWYQQKPGKAPKLLIYRTSNLETGVPSRFSGSGSGTDFTFTISSLQPEDIATYYCQQGTSLPRAFGQGTKLEIKR
notes: Humanized 723C2, human IgG4Pro/kappa; also called 723C2-IgG4Pro-461-41 with IgK-462-07
Broadly, the Kd is the equilibrium constant for the complex coming apart. For orientation: koff means the rate constant with which the complex falls apart. One may read the kon as a measure of how fast the partners come together. In assay [1], B1 came in with a dissociation constant Kd of 32.9 nM, a koff of 0.00558 s⁻¹ and a kon of 169000 M⁻¹ s⁻¹. In assay [2], the “Emax Values (%), Average, inhibition of IL-17A” value was determined as 63.4% and the “IC50 Values (pM), Geomean, inhibition of IL-17A” value was 25.3 pM. In assay [3], the “Emax Values (%), Average, inhibition of IFNγ” value was determined as 48.9% and the “IC50 Values (pM), Geomean, inhibition of IFNγ” value worked out at 18.4 pM. Also, in assay [4], the Kd was 1.62 nM, the koff came out at 0.000421 s⁻¹ and the on-rate (kon) was 259000 M⁻¹ s⁻¹.

B2: Antibody D (antibody, human IgG4 S228P, kappa, V domains shown)
VH: B1 VH with N77Q, Q84N
VL: B1 VL with T57S
notes: Humanized 723C2, human IgG4Pro/kappa; also called 723C2-IgG4Pro-461-44 with IgK-462-08
Consider B2, for which, in assay [1], the Kd amounted to 45.2 nM, the koff is 0.00674 s⁻¹ and the kon was 149000 M⁻¹ s⁻¹. For the same molecule, in assay [2], the “Emax Values (%), Average, inhibition of IL-17A” value is 63.9% and the “IC50 Values (pM), Geomean, inhibition of IL-17A” value came to 31.9 pM. For the same molecule, in assay [3], the “Emax Values (%), Average, inhibition of IFNγ” value amounted to 50.1% and the “IC50 Values (pM), Geomean, inhibition of IFNγ” value was determined as 18 pM. In addition, in [4], the Kd amounted to 2.58 nM, the koff amounted to 0.000574 s⁻¹ and the kon was 222000 M⁻¹ s⁻¹.

B3: Antibody C (antibody, human IgG4 S228P, kappa, V domains shown)
VH: B1 VH with L63A, N77Q
VL: B1 VL
notes: Humanized 723C2, human IgG4Pro/kappa; also called Ab C; 723C2-IgG4Pro-461-47 with IgK-462-07
By EC50 is commonly meant the midpoint of the concentration-response curve. What is called EC50 (read off the curve) is the concentration that produces a half-maximal response. On to B3, for which, in assay [1], the dissociation constant Kd was 41 nM, the dissociation rate constant (koff) was 0.00633 s⁻¹ and the association rate constant (kon) came out at 154000 M⁻¹ s⁻¹. Moreover, the EC50 in [5] stood at 2.4 nM. For the same molecule, in assay [2], the “Emax Values (%), Average, inhibition of IL-17A” value turned out to be 62.9% and the “IC50 Values (pM), Geomean, inhibition of IL-17A” value was determined as 32.5 pM. In assay [3], the “Emax Values (%), Average, inhibition of IFNγ” value was found to be 46.8% and the “IC50 Values (pM), Geomean, inhibition of IFNγ” value worked out at 17.7 pM. Besides, the “IC50 Values (nM), Geomean, inhibition of IFNγ” value in assay [6] is 0.03 nM. In assay [7], the “EC50 (read off the curve)” value was roughly 10 nM. Moreover, the “IC50 Values (pM), Geomean, inhibition of IL-21” value in assay [8] is 6 pM. Besides, the “IC50 Values (nM), Geomean, inhibition of IFNγ” value in assay [9] was found to be 0.03 nM. Moreover, in assay [4], the equilibrium dissociation constant (Kd) is 2.65 nM, the off-rate constant (koff) worked out at 0.000463 s⁻¹ and the on-rate (kon) worked out at 175000 M⁻¹ s⁻¹.

B4: PD1AB-6-4P (antibody, V domains shown)
VH: EVQLVQSGAEVKKPGATVKISCKASGFNIKDTYMHWVQQAPGKGLEWMGRIDPANGDRKYDPKFQGRVTITADTSTDTAYMELSSLRSEDTAVYYCARSGPVYYYGSSYVMDYWGQGTTVTVSS
VL: DIVMTQSPDSLAVSLGERATINCKSGQSVLYSSNQKNFLAWYQQKPGQPPKLLIYWASTRESGVPDRFSGSGSGTDFTLTISSLQAEDVAVYYCHQYLYSWTFGQGTKLEIK
B4: in assay [2], the “Emax Values (%), Average, inhibition of IL-17A” value came out at 67.5% and the “IC50 Values (pM), Geomean, inhibition of IL-17A” value was found to be 176 pM. In [3], the “Emax Values (%), Average, inhibition of IFNγ” value is 40.1% and the “IC50 Values (pM), Geomean, inhibition of IFNγ” value worked out at 31.5 pM. In addition, in [8], the “IC50 Values (pM), Geomean, inhibition of IL-21” value was determined as 50 pM. This molecule also had a Kd in assay [10] of 25 nM.

B5: Chimeric 723C2 in IgG4Pro (antibody, V domains shown)
VH: EVQLVESGGGLVQPGGSLKLSCAASGFTFSDYYMSWVRQTPEKRLEWVAYISSGGGSSYYPDSVKGRFTISRDNTKNTLYLQMSSLKSEDTAVYYCARLPHYFAMDYWGQGTSVTVSS
VL: EIVLTQSPTTMAASPGEKITITCSASSSISSDYLHWYQQKPGFSPELLIYRTSNLASGVPARFSGSGSGTSYSLTIGSMEAEDVATYYCQQGTSLPRAFGGGTKLEIKR
For B5, in assay [11], the equilibrium dissociation constant (Kd) stood at 2.58 nM, the off-rate constant (koff) came to 0.000582 s⁻¹ and the kon turned out to be 226000 M⁻¹ s⁻¹. In assay [1], binding was characterised by a dissociation constant (Kd) of 38.9 nM, the off-rate (koff) came out at 0.00721 s⁻¹ and the kon was 185000 M⁻¹ s⁻¹. Also, in assay [2], the “Emax Values (%), Average, inhibition of IL-17A” value was 70% and the “IC50 Values (pM), Geomean, inhibition of IL-17A” value was determined as 14.4 pM. Further, in assay [3], the “Emax Values (%), Average, inhibition of IFNγ” value came to 66.5% and the “IC50 Values (pM), Geomean, inhibition of IFNγ” value worked out at 18 pM. Besides, in assay [8], the “IC50 Values (pM), Geomean, inhibition of IL-21” value stood at 12 pM. In assay [4], the dissociation constant (Kd) amounted to 2.58 nM, the koff was 0.000582 s⁻¹ and the kon was found to be 226000 M⁻¹ s⁻¹. Besides, in assay [12], the “Emax Values (%), inhibition of NFAT activity” value was 42.6% and the “IC50 Values (nM), inhibition of NFAT activity” value was 0.13 nM.

B6: antibody 723C2 in human IgG4Pro backbone without the DC to DY mutation in H-CDR3 (antibody, V domains shown)
VH: B5 VH with Y107C
VL: EIVLTQSPTTMAASPGEKITITCSASSSISSDYLHWYQQKPGFSPELLIYRTSNLASGVPARFSGSGSGTSYSLTIGSMEAEDVATYYCQQGTSLPRAFGGGTKLEIK
notes: Mouse 723C2 variable domains (H-CDR3 ending DC) in human IgG4Pro backbone; also called 723C2-4P
On to B6, for which the “EC50 (read off the curve)” value in assay [13] is roughly 6 nM; in assay [14], roughly 2 nM.
